{
  "source": "the nanobody polyreactivity screen of Harvey et al. (2022)",
  "data": [
    {"experiment": "yeast display, Sf9 membrane polyspecificity reagent, FACS + sequencing; frameworks hold sequencing errors", "in_short": "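Polyreactivity labels are assigned by the sorting gate from which each nanobody was recovered. The gates were low and high (top ~1%), set on anti-HA fluorescence for expression and streptavidin fluorescence for reagent binding. Before sorting, galactose-induced (36–48 hours) yeast display cells were stained for 1 hour at 4 °C with 10% biotinylated, detergent-solubilized Sf9 membrane reagent.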", "values": [
      {"sequence": "QVQLVESGGGLVQAGGSLRLSCAASGSTLSAYVMGWYRQAPGKERELVAAITRGGNTYYADSVKGRFTISRDNAKNTVYLQMNSLKPEDTAVYYCAARTYVSYGYYTRNYWGQGTQVTVSS", "polyreactivity (PSR sort gate)": "high polyreactivity"},
      {"sequence": "QVQLVESGGGLVQAGGSLRLSCAASGSTLSDNAMGWYRQAPGKERELVARISGDGSTNYADSVKGRFTISRDNAKNTVYLQMNSLKPEDTAVYYCNAGTAGIYYYGKSDYWGQGTQVTVSS", "polyreactivity (PSR sort gate)": "low polyreactivity"},
      {"sequence": "QVQLVESGGGLVQAGGSLRLSCAASGSTLSFNAMGWYRQAPGKERELVAGITYSGASTYYADSVKGRFTISRDNAKNTVYLQMNSLKPEDTAVYYCAADSPYQIYYYWGQGTQVTVSS", "polyreactivity (PSR sort gate)": "low polyreactivity"},
      {"sequence": "QVQLVESGGGLVQAGGSLRLSCAASGSTLSKYAMGWYRQAPGKEREFVAAISRSGGSTYYADSVKGRFTISRDKAKNTVYLQMNSLKPEDTAVYYCAKVLRTFSGLYYWGQGTQVTVSS", "polyreactivity (PSR sort gate)": "high polyreactivity"},
      {"sequence": "QVQLVESGGGLVQAGGSLRLSCAASGSTLSKYAMGWYRQAPGKERELVATISIRGGNTYYADSVKGRFTFSRDNAKNTVYLQMNSLKPEDTAVYYCAARRVNAPPSYRQKAGYDYWGQGTQVTVSS", "polyreactivity (PSR sort gate)": "high polyreactivity"},
      {"sequence": "QVQLVESGGGLVQAGGSLRLSCAASGSTLSQYAMGLYRQAPGKERELVAAITKSGVRTYYPDSVKGRFTISRDNAKNTVYLQMNSLKREDTAVYYCAKATTKYIAPYDYWGQGTQVTVSS", "polyreactivity (PSR sort gate)": "high polyreactivity"},
      {"sequence": "QVQLVESGGGLVQAGGSLRLSCAASGSTLSRYVMGWYRRAAGKERELVAAISSSGGSTYYADSVKGRFTISRDNAKNTVYLQMNSLKPEDTADYYCNVDHWRRGRSDNYWGQGTQVTVSS", "polyreactivity (PSR sort gate)": "high polyreactivity"},
      {"sequence": "QVQLVESGGGLVQAGGSLRLSCAASGSTLSYYAMGWYRQAPGKEREWVAAISLSVGSTYYADSVKGRFTISRDNAKNTVYLQMNSLKPEETAVYYCAADDFYSGPFRGDYWGQGTQVTVSS", "polyreactivity (PSR sort gate)": "low polyreactivity"},
      {"sequence": "QVQLVESGGGLVQAGGSLRLSCAASGSTLTFNAMGWYRQAPWKERELVAAISWSDTDTYYADSVKGRFTISRDNAKNTVYLQINSLKPEDTAVYYCAATLSAYEMDYWGQGTQVTVSS", "polyreactivity (PSR sort gate)": "low polyreactivity"},
      {"sequence": "QVQLVESGGGLVQAGGSLRLSCAASGSTLTRNTMGWYRQAPGKERELVATITRSGGSTYYADSVKGRFTISRDNAKNTVYLQMNSLKPEDTAVYYCAKRGRLRNYDYWGQGTQVTVSS", "polyreactivity (PSR sort gate)": "high polyreactivity"},
      {"sequence": "QVQLVESGGGLVQAGGSLRLSCAASGSTLVGYAMGWYRQAPGKERELVAAISSSGTSTYYADSVKGRFSISRDNAKNTVYLQMNSLKPEDTAVYYCSARQRGTYGYWGQGTQVTVSS", "polyreactivity (PSR sort gate)": "high polyreactivity"},
      {"sequence": "QVQLVESGGGLVQAGGSLRLSCAASGSTLVTNAMGWYRQAPGKERELVAAITFSGGTTYYADSVKGLFTISRDNAKNTVYLQMNSLKPEDTAVYYCAAEIWLEYVGYDYWGQGTQVTLSS", "polyreactivity (PSR sort gate)": "high polyreactivity"},
      {"sequence": "QVQLVESGGGLVQAGGSLRLSCAASGSTLVTYAMGWYRQAPGKERELVARIDSGGSTNYADSVKGRFTISRDNAKNTVYLQMNSLKPEDTAVYYCSAGGGFYFIWTMDYWGQGTQVTVSS", "polyreactivity (PSR sort gate)": "low polyreactivity"},
      {"sequence": "QVQLVESGGGLVQAGGSLRLSCAASGSTLVVNGMGWYRQAPGKERELVASISSDGSTNYADSVKGRFTISRDNAKNTVYLQMNSLKPEDTAVYYCAADEGTGQASLSSNLYDYWGQGTQVTVSS", "polyreactivity (PSR sort gate)": "low polyreactivity"},
      {"sequence": "QVQLVESGGGLVQAGGSLRLSCAASGSTLVYYDMGWSRQAPGKERELVATITGTDSTYYADSVKGRFTISRDNAKNTVYLQMNSLKPEDTADCAADRAASRPDYDYWGQGTQVTVSS", "polyreactivity (PSR sort gate)": "low polyreactivity"},
      {"sequence": "QVQLVESGGGLVQAGGSLRLSCAASGSTLWANAMGWYRQAPGKERELVAAISWRGGRTYYADSVKGRFTISRDNAKNTVYLQMNSLKPEDTAVYYCNAVSYYRPRSDYGGQGTQVTVSS", "polyreactivity (PSR sort gate)": "high polyreactivity"},
      {"sequence": "QVQLVESGGGLVQAGGSLRLSCAASGSTLWFNAMGWYRQAPGKERELVAAISFSSGSTYYADSVKGRFTISRDNAKNTVYLQMNSLKPEDTAVYYCAARLRWWGYDYWGQGTQVTVSS", "polyreactivity (PSR sort gate)": "high polyreactivity"},
      {"sequence": "QVQLVESGGGLVQAGGSLRLSCAASGSTLWWYDMGWYRQAPGKERELVAAINSGGSTNYADSVKGRFTISRDNAKNTVYLQMNSLKPEDTAVYYCNTDGEVTYDYWGQGTQVTVSS", "polyreactivity (PSR sort gate)": "low polyreactivity"},
      {"sequence": "QVQLVESGGGLVQAGGSLRLSCAASGSTLYAYAMGWYRQAPGKERELVAAISRSGGSTYYAYSVKGRFTISRDNAKNTVYLQMNSLKPEDTAVYYCNAYYRYFRSIYDSWGQGTQVTVSS", "polyreactivity (PSR sort gate)": "high polyreactivity"},
      {"sequence": "QVQLVESGGGLVQAGGSLRLSCAASGSTLYFYAMGWYRQAPGKERELVASISGTGGRTDYADSVKGRFTISRDNAKNTVYLQMNSLKPEDTAVYYCAARGLVYQSNRYYGYRDYYYWGQGTQVTVSS", "polyreactivity (PSR sort gate)": "high polyreactivity"},
      {"sequence": "QVQLVESGGGLVQAGGSLRLSCAASGSTLYGNVMGWFRQAPGKERELVATINRGGSTNYADSVKGRFTISRDNAKNTVYLQMNSLKPEDTAVYYCAVYHYSSYEYLGQGTQVTVSS", "polyreactivity (PSR sort gate)": "low polyreactivity"},
      {"sequence": "QVQLVESGGGLVQAGGSLRLSCAASGSTLYGYAMGWYRQAPGKERELVAAISSSGTRTYYADSVKGRFTISRDNAKNSVYLQMNSLKPEDTAVYYCNAYYYIPFEGRGYSKMDYWGQGTQVTVSS", "polyreactivity (PSR sort gate)": "high polyreactivity"},
      {"sequence": "QVQLVESGGGLVQAGGSLRLSCAASGSTLYIYAKGWYRQAPGKETEFDADFSWSGGSTYYADSVKGRFTISRDYASNTVYLQMNSQKPEDTAVYNCNGDFTDSYLSRYDYWGQGTQVTVSS", "polyreactivity (PSR sort gate)": "low polyreactivity"},
      {"sequence": "QVQLVESGGGLVQAGGSLRLSCAASGSTLYNYAMGWYRQAPGKERELVAAITKSGGRTYYADSVKGRFTISRDNAKNTVYLQMNSLKAEDTAVYYCAADRTQYARFDSWGQGTQVTVSS", "polyreactivity (PSR sort gate)": "high polyreactivity"},
      {"sequence": "QVQLVESGGGLVQAGGSLRLSCAASGSTLYPNPMGWYRQAPGTERELVAAISGTGGGTYYADSVKGRFTISRDNAKNTVYLQMNSLKPEDTAVYYCAADYVFAWWGDYYWGQGTQVTVSS", "polyreactivity (PSR sort gate)": "high polyreactivity"},
      {"sequence": "QVQLVESGGGLVQAGGSLRLSCAASGSTLYRNGMGWYRQAPGKEMEFVAAISWSGASTYYADSVKGRFTISRDNAKNTVYLQMNSLKPEDTAVYYCNARGPTVYETHNYWGQGTQVTVSS", "polyreactivity (PSR sort gate)": "low polyreactivity"},
      {"sequence": "QVQLVESGGGLVQAGGSLRLSCAASGSTLYVNAMGWYRQAPGKERELVAAISWSGGSTNYADSVKGRFTISRDNAKNTVYLQMNSLKPEDTAVYYCNVDSVVWDNAWYLYDYWGQGTQVTVSS", "polyreactivity (PSR sort gate)": "low polyreactivity"},
      {"sequence": "QVQLVESGGGLVQAGGSLRLSCAASGSTLYWNAMGWYRQAPGKERELVAGISIGGRTNYADSVKGRFTISRDNAKNTVYLQMNSLKPEDTAVYYCNAENTYLGSRYRPYNYWGQGTQVTVSS", "polyreactivity (PSR sort gate)": "low polyreactivity"},
      {"sequence": "QVQLVESGGGLVQAGGSLRLSCAASGSTLYWYAMGWYRQAPGKERELVAAITSGGNTYYADSVKGRFTISRDNAKNTVYLQMNSLKPEDTAVSYCAVGSFGVSAYSYYYWGQGTQVTVSS", "polyreactivity (PSR sort gate)": "low polyreactivity"},
      {"sequence": "QVQLVESGGGLVQAGGSLRLSCAASGSTLYYYAMGWYRQAPGKERELVAAISSGGRTYYADSVKGRFTISRDNAKNTVYLQMNSLKPEDTAVYYCNAVRYQKIFDYWGQGTQVTVSS", "polyreactivity (PSR sort gate)": "high polyreactivity"},
      {"sequence": "QVQLVESGGGLVQAGGSLRLSCAASGSTLYYYAMGWYRQAPGKERELVATITNGGSTNYADSVKGRFTISRDNAKNTVYLQMNSLKPEDTAVYYCNARRGYWGSHYWGQGTQVTVSS", "polyreactivity (PSR sort gate)": "high polyreactivity"},
      {"sequence": "QVQLVESGGGLVQAGGSLRLSCAASGSTLYYYVMGWYRQAPGKERELVAAISSSGDSTYYADSVKGRFTISRDNAKNTVYLQMTSLKPEDTAVYYCNAGWYFYGETTDDYWGQGTQVTVSS", "polyreactivity (PSR sort gate)": "low polyreactivity"}
    ]}
  ]
}
